Results from paper PMC8298602, “14-3-3-protein regulates Nedd4-2 by modulating interactions between HECT and WW domains” (Communications Biology, 2021).

Key:
[1] = biological target: phosphorylated Nedd4-2^186–975 (human) (UniProt Q96PU5); assay: SEC-SAXS; Superdex 200 Increase 5/150 GL, 20 mM Tris-HCl pH 7.5, 150 mM NaCl, 1 mM TCEP, 3% glycerol, 293.15 K; loaded 2.2 mg/ml Nedd4-2^186–975, 2 mg/ml 14-3-3η, 8.9 mg/ml complex (1:2, 60 μM)
[2] = biological target: phosphorylated Nedd4-2^186–975 (human) (UniProt Q96PU5); assay: AUC; sedimentation velocity, 20 °C, 50 mM Tris-HCl pH 8.0, 500 mM NaCl, 1 mM TCEP, 0.01% NP-40; 3 μM pNedd4-2^186–975 alone, 6 μM 14-3-3η alone, mixtures 1:1 and 1:2; 300 nM pNedd4-2^186–975 with 0.06−6 μM 14-3-3η; apparent KD, sw isotherm and Lamm-equation modelling, 14-3-3η dimer + one pNedd4-2

Chain of phosphorylated Nedd4-2^186–975 (human) (Q96PU5 186-975): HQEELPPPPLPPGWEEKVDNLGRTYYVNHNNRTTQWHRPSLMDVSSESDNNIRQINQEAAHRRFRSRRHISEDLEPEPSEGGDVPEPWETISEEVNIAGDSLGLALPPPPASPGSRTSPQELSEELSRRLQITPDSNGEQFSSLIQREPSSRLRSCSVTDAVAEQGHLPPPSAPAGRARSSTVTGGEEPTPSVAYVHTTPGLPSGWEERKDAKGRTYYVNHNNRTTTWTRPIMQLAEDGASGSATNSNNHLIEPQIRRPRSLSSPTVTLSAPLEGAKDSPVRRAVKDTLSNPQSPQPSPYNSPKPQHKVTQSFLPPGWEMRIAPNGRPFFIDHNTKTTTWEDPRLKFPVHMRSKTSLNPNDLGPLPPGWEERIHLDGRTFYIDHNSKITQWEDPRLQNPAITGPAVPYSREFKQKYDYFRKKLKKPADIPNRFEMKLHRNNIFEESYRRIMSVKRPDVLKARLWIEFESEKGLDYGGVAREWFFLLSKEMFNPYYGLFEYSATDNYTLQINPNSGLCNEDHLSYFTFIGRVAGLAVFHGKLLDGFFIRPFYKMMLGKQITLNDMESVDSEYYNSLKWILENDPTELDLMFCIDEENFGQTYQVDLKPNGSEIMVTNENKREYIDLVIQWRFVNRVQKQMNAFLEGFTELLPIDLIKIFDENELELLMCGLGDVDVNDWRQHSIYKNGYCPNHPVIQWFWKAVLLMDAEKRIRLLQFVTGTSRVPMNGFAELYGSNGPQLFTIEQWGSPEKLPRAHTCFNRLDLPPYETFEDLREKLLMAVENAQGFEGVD

14-3-3η (from UniProt Q04917 1-246) (natural protein)
stoichiometry N (14-3-3η protomers per Nedd4-2 protomer) [1]: 2
Kd [2]: < 50 nM
stoichiometry N (14-3-3η protomers per Nedd4-2 protomer) [2]: 2
